From US20220296726A1 (Bicycle, published 2022)
*1 amine or outer side, *2 acyl side, *3 side chain or, on linkers, in order; H or OH if unused. Bridges are numbered along the chain shown (N, C = ends). Where no end group is shown, it is not given here. [ ]: non-standard residue; d: D form. The star is where a group is joined. TATA = O=C(CC[*:1])N1CN(C(=O)CC[*:2])CN(C(=O)CC[*:3])C1; Phe(2-Me) = Cc1ccccc1C[C@H](N)C(=O)O; Pent4ynoyl = C#CCCC(=O)*

T1: Human TREM2 extracellular domain (ECD), residues 19-131, C-terminally biotinylated, glycosylated (human, UniProt Q9NZC2 19-131, C-terminally biotinylated; glycosylated)
T1 construct: range 19-131; loaded on Superstreptavidin biosensors; also called Human BLI glycosylated
T1 sequence (looked up): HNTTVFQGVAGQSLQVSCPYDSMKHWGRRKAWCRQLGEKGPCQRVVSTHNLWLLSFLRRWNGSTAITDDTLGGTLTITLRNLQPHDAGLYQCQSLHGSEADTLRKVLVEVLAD

T2: Human TREM2 extracellular domain (ECD), residues 19-131, C-terminally biotinylated, deglycosylated (human, UniProt Q9NZC2 19-131, C-terminally biotinylated; deglycosylated)
T2 construct: range 19-131; loaded on Superstreptavidin biosensors; also called triggering receptor expressed on myeloid cells 2; Human BLI (deglycosylated)
T2 sequence (looked up): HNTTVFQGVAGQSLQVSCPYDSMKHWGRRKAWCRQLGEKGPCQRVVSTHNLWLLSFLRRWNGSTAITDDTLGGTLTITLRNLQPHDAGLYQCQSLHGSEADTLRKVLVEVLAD

T3: Cyno TREM2 (Cyno, UniProt A0A2K5UY34 49-161)
T3 construct: range 19-131; also called Cyno BLI
T3 sequence: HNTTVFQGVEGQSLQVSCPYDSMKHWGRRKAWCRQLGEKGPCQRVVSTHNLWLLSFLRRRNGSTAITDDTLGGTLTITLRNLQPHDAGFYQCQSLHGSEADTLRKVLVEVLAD

T4: TREM2 on human iPSC macrophages (human, UniProt Q9NZC2 19-230)
T4 sequence (looked up): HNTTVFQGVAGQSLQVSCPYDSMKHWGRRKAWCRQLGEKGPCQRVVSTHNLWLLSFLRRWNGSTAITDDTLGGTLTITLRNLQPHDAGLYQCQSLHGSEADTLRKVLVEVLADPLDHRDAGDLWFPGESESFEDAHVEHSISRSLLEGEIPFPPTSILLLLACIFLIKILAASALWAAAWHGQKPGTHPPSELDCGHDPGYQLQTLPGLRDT


Assays:
[1] = target: T1, Human TREM2 extracellular domain (ECD), …; experiment: BLI steady state, glycosylated human TREM2 ECD on sensor
Description: (§1) Bio-layer interferometry was performed on an Octet RED384® system (Sartorius) at 25° C. in a buffer containing 50 mM HEPES (pH 7.5), 150 mM NaCl and 0.1% Tween. […] Reference wells containing no bicycle peptides and reference sensors loaded with an unrelated protein (His-tagged MLLT3a) were subjected to the same assay protocol and double reference subtraction was used for processing to account for non-specific binding. Traces were analysed using Octet Software (Version 11.0). Association and dissociation curves were globally fit and the response at equilibrium (Req) plotted against concentration to obtain steady-state KD values.

[2] = target: T2, Human TREM2 extracellular domain (ECD), …; experiment: BLI steady state, deglycosylated human TREM2 ECD on sensor
Description: as §1

Cyno TREM2 = target: T3, Cyno TREM2; experiment: BLI steady state, cyno TREM2 on sensor
Description: as §1

[3] = target: T4, TREM2 on human iPSC macrophages; experiment: cell-based or functional assay
[4] = target: T2, Human TREM2 extracellular domain (ECD), …; experiment: Bio-layer interferometry (Octet), direct binding: biotinylated human TREM2 ECD loaded on Superstreptavidin biosensors, peptide in solution at 0.195 to 12.5 µM (7 traces)
Description: as §1

Row | Binder | Kd [1] | Kd [2] | Kd (Cyno TREM2) | pSYK (µM) [3] | Kd [4]
1 | Ac-CSEYCFWPFWHC (linker 1-5-12 via TATA) [BCY20077] | 750 nM |  |  |  | 
2 | CSEYCFXPFYHC (N-terminal acetyl (Ac); CiSEYCiiF[6MeTrp]PFYHCiii; Ci, Cii, Ciii on TATA scaffold) [BCY20060] | 1110 nM | 1390 nM |  |  | 
3 | ACSEYCFWPFYHCA (linker 2-6-13 via TATA) [BCY16054] |  | 700 nM | 3.3 µM | 10.7 µM | 680 nM
4 | Ac-CSEYCF[Phe(2-Me)]PFYHC (linker 1-5-12 via TATA) [BCY20063] | 1580 nM | 1300 nM |  |  | 
5 | CSEYCFWXFYHC (N-terminal acetyl (Ac); CiSEYCiiFW[44DFP]FYHCiii; Ci, Cii, Ciii on TATA scaffold) [BCY20066] | 980 nM | 1860 nM |  |  | 
6 | CSEYCFWPXYHC (N-terminal acetyl (Ac); CiSEYCiiFWP[1Nal]YHCiii; Ci, Cii, Ciii on TATA scaffold) [BCY19668] |  | 240 nM |  | 12.7 µM | 
7 | CSEYCFWPXYHC (N-terminal acetyl (Ac); CiSEYCiiFWP[2Nal]YHCiii; Ci, Cii, Ciii on TATA scaffold) [BCY20076] | 1290 nM |  |  |  | 
8 | CSEYCFWPXYHC (N-terminal acetyl (Ac); CiSEYCiiFWP[44BPA]YHCiii; Ci, Cii, Ciii on TATA scaffold) [BCY20075] | 1510 nM | 2400 nM |  |  | 
9 | CSEYCXWPFYHC (N-terminal acetyl (Ac); CiSEYCii[3FPhe]WPFYHCiii; Ci, Cii, Ciii on TATA scaffold) [BCY20052] | 1250 nM | 4880 nM |  |  | 
10 | CSEYCFWPXYHC (N-terminal acetyl (Ac); CiSEYCiiFWP[4FPhe]YHCiii; Ci, Cii, Ciii on TATA scaffold) [BCY20073] | 2130 nM | 2320 nM |  |  | 
11 | ACTSYCFWPFYQCA-NH2 (linker 2-6-13 via TATA; N-terminus assumed; SMILES C[C@H](N)C(=O)N[C@H]1CSCCC(=O)N2CN3CN(C2)C(=O)CCSC[C@H](NC(=O)[C@H](Cc2ccc(O)cc2)NC(=O)[C@H](CO)NC(=O)[C@H]([C@@H](C)O)NC1=O)C(=O)N[C@@H](Cc1ccccc1)C(=O)N[C@@H](Cc1c[nH]c2ccccc12)C(=O)N1CCC[C@H]1C(=O)N[C@@H](Cc1ccccc1)C(=O)N[C@@H](Cc1ccc(O)cc1)C(=O)N[C@@H](CCC(N)=O)C(=O)N[C@H](C(=O)N[C@@H](C)C(N)=O)CSCCC3=O) [BCY19768] |  | 900 nM |  | 7.8 µM | 
12 | CSEYCFXPFYHC (N-terminal acetyl (Ac); CiSEYCiiF[6ClTrp]PFYHCiii; Ci, Cii, Ciii on TATA scaffold) [BCY19671] |  | 1000 nM |  | 154 µM | 
13 | CSEYCFXPFYHC (N-terminal acetyl (Ac); CiSEYCiiF[Trp(Me)]PFYHCiii; Ci, Cii, Ciii on TATA scaffold) [BCY20059] | 1500 nM | 1810 nM |  |  | 
14 | CSEYCXWPFYHC (N-terminal acetyl (Ac); CiSEYCii[1Nal]WPFYHCiii; Ci, Cii, Ciii on TATA scaffold) [BCY20054] | 1830 nM | 2540 nM |  |  | 
15 | K(Pent4ynoyl)CSEYCFWPFYHC (linker 2-6-13 via TATA) [BCY20042] | 1350 nM | 1190 nM |  |  | 
16 | CSEYCFWPXYHC (N-terminal acetyl (Ac); CiSEYCiiFWP[2MePhe]YHCiii; Ci, Cii, Ciii on TATA scaffold) [BCY20071] | 780 nM | 910 nM |  |  | 
17 | CSEYCXWPFYHC (N-terminal acetyl (Ac); CiSEYCii[4FPhe]WPFYHCiii; Ci, Cii, Ciii on TATA scaffold) [BCY20053] | 1710 nM | 2010 nM |  |  | 
